Test [1] deals with T1, Recombinant human podoplanin Fc chimera protein (R&D, 3670-PL) (human, UniProt Q86YL7 23-128).
T1 construct: Bought reagent; not shown: Fc part of the bought chimera (detected with anti-human IgG Fc)
T1 sequence (looked up): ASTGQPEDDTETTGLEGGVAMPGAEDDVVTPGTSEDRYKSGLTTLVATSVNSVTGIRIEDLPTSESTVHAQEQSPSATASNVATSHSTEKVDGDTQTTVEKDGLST
Nature of the test: competition ELISA: inhibition of podoplanin-Fc binding to CLEC-2 on solid phase; positive control. The source says:
(§1) The culture supernatants collected in Production Examples 1 and 2 were used to measure the inhibitory activity against binding of podoplanin to CLEC-2, following the ELISA protocol described in Patent Document 1.
The mouse antibody PG4D2 (PG4D2) was used as a positive control. The mouse antibody PG4D2 is a monoclonal antibody that is obtained from the NITE P-02071 (PG4D2) hybridoma.

The target of test [2] is T1, Recombinant human podoplanin Fc chimera …. As to the kind of experiment: competition ELISA: inhibition of podoplanin-Fc binding to CLEC-2 on solid phase.
Text: as §1

Test [3] deals with T2, Peptide of the human podoplanin PLAG4 domain (WT-hPLAG4 (Genscript, 788349-1)) (human, UniProt Q86YL7 76-89, limits assumed).
T2 construct: domain: PLAG4 domain
T2 peptide (looked up): TGIRIEDLPTSEST
As to the kind of experiment: ELISA, PLAG4 peptide on solid phase, culture supernatant; the reference itself, set as 100%. From the text: The culture supernatants collected in Production Examples 1 and 2 were used to measure the binding activity to the podoplanin PLAG4 domain, following the ELISA protocol described in Patent Document 1. A peptide of the human podoplanin PLAG4 domain (WT-hPLAG4 (Genscript, 788349-1)) as an antigen peptide was immobilized on a solid phase, and a preadsorbed goat biotin-conjugated anti-human IgG Fc antibody (Abcam, ab98618) and β-Gal-conjugated streptavidin (Roche Diagnostics, 11112481001) were used for a detection purpose.
The avidity (antibody titer) of each antibody was expressed relative to that of the mouse-human chimeric antibody chPG4D2, which is set as 100%.
In general terms: An ELISA detects its analyte on a solid surface through an enzyme-linked reagent.

The source of these data is patent publication US20210403555A1 (JAPANESE FOUNDATION FOR CANCER RESEARCH, published 2021).

Numbering of substitutions follows the chain as printed.

Broadly, the IC50 is the concentration needed to halve the response being measured.

B1: Mouse antibody PG4D2 (antibody, V domains shown)
VH: DVQLVESGGGLVQPGGSRKLSCAASGFTFSGFGMLWVRQAPEKGLEWVAYISSVSSRIYYADTVKGRFTISRDNPKNTLFLQMTSLRSEDTAMYYCARESYGPAWFAYWGQGTLVTVSA
VL: DVLMTQTPLSLPVSLGDQASISCRSSQHIVHIDGNTYLEWYLQQPGQSPKLLIYKVSNRFSGVPDRFSGSGSGTDFTLRISRVEAEDLGVYYCFQGSHVPYTFGGGTKLEMK
On to B1, for which the IC50 in test [1] amounted to 0.371 mg/L.

B2: Mouse-human chimeric antibody chPG4D2 (antibody, human IgG4 S228P, kappa, V domains shown)
VH: B1 VH
VL: DVLMTQTPLSLPVSLGDQASISCRSSQHIVHIDGNTYLEWYLQQPGQSPKLLIYKVSNRFSGVPDRFSGSGSGTDFTLRISRVEAEDLGVYYCFQGSHVPYTFGGGTKLEMKR
For B2, in test [2], the IC50 came to 0.406 mg/L. Further, in test [3], the “Avidity (antibody titer) (%) relative to chPG4D2” value amounted to 100%.

B3: Humanized antibody K4 (antibody, human IgG4 S228P, kappa, V domains shown)
VH: EVQLVESGGGLVQPGGSLRLSCAASGFTFSGFGMLWVRQAPGKGLEWVAYISSVSSRIYYADTVKGRFTISRDNAKNSLYLQMNSLRAEDTAVYYCARESYGPAWFAYWGQGTLVTVSS
VL: DIVMTQSPLSLPVTPGEPASISCRSSQHIVHIDGNTYLEWYLQKPGQSPQLLIYKVSNRFSGVPDRFSGSGSGTDFTLKISRVEAEDVGVYYCFQGSHVPYTFGGGTKVEIKR
For the molecule B3, the IC50 in test [2] was found to be 0.36 mg/L.

B4: Humanized antibody K5 (antibody, human IgG4 S228P, kappa, V domains shown)
VH: B3 VH with A49S, A75S, S78T
VL: B3 VL
In the case of B4, in test [2], the IC50 came to 0.364 mg/L.
